Laboratory results as given in paper PMC3059804.
Like-named read-outs stand apart in the source and are kept apart here.

Columns and labels:
Assay in all cases: enzyme inhibition kinetics
[1] = molecular target: human LSD1-CoREST complex (LSD1 residues 171-836 with CoREST residues 308-440) (human) (UniProt O60341)
[2] = molecular target: human LSD1-CoREST complex (LSD1 residues 171-836 with CoREST residues 308-440) (human) (UniProt O60341); remark: listed apart in the source
[3] = molecular target: recombinant mouse LSD2 (mouse) (UniProt Q8CIG3)
[4] = molecular target: human LSD1-CoREST complex (LSD1 residues 171-836 with CoREST residues 308-440) (human) (UniProt O60341); remark: listed apart in the source

Substance “20-residue peptide corresponding to the N-terminal residues of human SNAIL1” has a Ki [1] of 220 µM, a Ki [2] of 210 µM and a Ki [3] of 2220 nM. It also gave a Ki [4] of 200 nM.
